# Biological target: SARS-CoV-2 spike protein (Wuhan-Hu-1) with C-terminal histidine, coated in the ELISA of Fig 2C (SARS-CoV-2) (UniProt P0DTC2)
# Experiment: ELISA
# LRRC15-Fc, sequence (Q8TF66 22-538): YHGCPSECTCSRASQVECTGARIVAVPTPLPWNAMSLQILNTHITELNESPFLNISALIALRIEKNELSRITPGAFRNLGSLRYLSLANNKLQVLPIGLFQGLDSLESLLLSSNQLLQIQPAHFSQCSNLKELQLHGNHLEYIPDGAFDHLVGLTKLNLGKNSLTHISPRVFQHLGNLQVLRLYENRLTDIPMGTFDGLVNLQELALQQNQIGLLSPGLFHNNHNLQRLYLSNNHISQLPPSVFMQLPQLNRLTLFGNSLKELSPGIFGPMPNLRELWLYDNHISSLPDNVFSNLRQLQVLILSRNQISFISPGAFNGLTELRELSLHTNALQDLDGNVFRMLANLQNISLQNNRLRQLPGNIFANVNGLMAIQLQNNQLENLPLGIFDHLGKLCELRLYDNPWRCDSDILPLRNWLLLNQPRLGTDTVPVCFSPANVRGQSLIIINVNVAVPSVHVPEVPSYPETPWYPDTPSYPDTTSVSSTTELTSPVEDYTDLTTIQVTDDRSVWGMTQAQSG
substance,measurement,value
LRRC15-Fc (from UniProt Q8TF66) (Fc fusion),Kd,109 nM
